Reference: patent publication US20160122426A1 (DONG A SOCIO, published 2016)

T1: mouse VEGF (mouse, UniProt Q00731-2 27-190)
T1 construct: Bought recombinant protein; also called mVEGF-A; mouse VEGF-A
T1 sequence (looked up): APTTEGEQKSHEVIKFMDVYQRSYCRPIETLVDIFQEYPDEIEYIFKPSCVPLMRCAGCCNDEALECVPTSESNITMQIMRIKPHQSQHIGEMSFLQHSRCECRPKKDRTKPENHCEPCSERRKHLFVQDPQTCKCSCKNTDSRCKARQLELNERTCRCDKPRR

B1: clone F (antibody, V domains shown)
VH: AVTLHESGGGLQTPGGALSLVCKASGFTFSSHGMQWVRQAPGKGLEYVAGISSDGSWTGYGAAVKGRATISRDNGQSTVRLQLNNLRAEDTATYYCARDFSTSYGADSIDAWGHGTEVIVSS
VL: LTQPSSVSANPGETVKITCSGGSNSAYGYGWYQQKSPGSAPVTLIYWDDKRPSDIPSRFSGSASGSTATLTITGVRAEDEAVYFCGAWEYSSDVGIFGAGTTLTVL
notes: Clone from an immunized chicken scFv phage library; also called mother clone F; F clone
B2: HF2-26 (antibody, V domains shown)
VH: EVQLVESGGGLVQPGGSLRLSCAASRFNMRSHGMQWVRQAPGKGLEYVAGISSDGSWIRVQAAVEGRFTISRDDSKNTAYLQMNSLRAEDTAVYYCARDFSTGYGADSIDAWGQGTLVTVSS
VL: DIQMTQSPSSLSASVGDRVTITCTAPADSAYGYGWYQQKPGKAPKTLIYWDDKRPSGVPSRFSGSRSGTDFTLTISSLQPEDFATYYCGAWEYSGGVGIFGQGTKVEIK

What was measured:
mouse VEGF [1] = target: T1, mouse VEGF; experiment: ELISA, 0.2 µg/ml VEGF coated, scFv or IgG serially diluted
Method: ELISA plates were coated with 0.2 μg/ml of human VEGF and mouse VEGF (R&D systems, USA) respectively, and the purified proteins obtained in Example 5 in the form of scFv expressed by HB2151 or IgG expressed by 293F cells were incubated at serially diluted concentrations.

human VEGF [2] = target: T2, human VEGF (human, UniProt P15692-4 27-191); experiment: ELISA, human VEGF coated, anti-human Fc-HRP, absorbance 450 nm [a]
T2 construct: Bought recombinant protein; also called hVEGF; human VEGF-A
Method: 1.5 ng of human VEGF diluted in 150 μL of buffer solution was placed in 96-well immune plate (Nunc, USA), and adsorbed at 4° C. overnight, followed by washing 3 times with a buffer solution containing 0.1% Tween 20. Then, they were reacted with a buffer solution including 1% bovine serum albumin (Sigma, USA) for 1 hr at room temperature, and washed 3 times. Then each well was treated with 150 μL of serially diluted antibody (1 ng/mL, 10 ng/mL, 30 ng/mL, 100 ng/mL, 1000 ng/mL and 3000 ng/mL) They were allowed to react for 1 hr at room temperature so that antigens may bind to antibodies, followed by washing 3 times with a buffer solution.
Each well was treated at 150 μL per well with anti-human immunoglobulin Fc-HRP antibody (AbSerotec, USA) diluted 1:20000 and allowed to react for 1 hr at room temperature. After the reaction was completed, washing was performed 3 times with a buffer solution, followed by addition of 150 μL of TMB (Sigma, USA) and color development for 10 min. The reaction was terminated with 1N sulfuric acid solution, and absorbance was measured at 450 nm using a spectrophotometer (Molecular Device, USA).

human VEGF [3] = target: T2, human VEGF; experiment: ELISA and BIAcore
mouse VEGF [4] = target: T1, mouse VEGF; experiment: ELISA and BIAcore
human VEGF [5] = target: T2, human VEGF; experiment: ELISA, human VEGF coated, absorbance 650 nm [g]

Binder | binding result (mouse VEGF [1]) | binding result (human VEGF [2]) | fold affinity over mother clone F (human VEGF [3]) [times] | fold affinity over mother clone F (mouse VEGF [4]) [times] | EC50 (read off the curve) (human VEGF [5]) [pM]
B1 | binds | binds |  |  | 
B2 |  |  | ≥ 10 | ≥ 10 | ~300
